Assay results reported in the Immune Epitope Database (IEDB).
One block for each sequence: values may come before it.

Key:
HLA-B*45:01 = assay: IEDB peptide-MHC binding, purified MHC/competitive/radioactivity; filed as Kd, often an IC50 or EC50 that approximates it; ≥ and ≤ were set here for values at or beyond the usual limits of such assays
HLA-B*44:03 = assay: as above
HLA-B*44:02 = assay: as above
HLA-B*40:01 = assay: as above
HLA-B*18:01 = assay: as above
HLA-B*40:02 = assay: as above
HLA-A*01:01 = assay: as above
HLA-A*29:02 = assay: as above
HLA-A*30:02 = assay: as above
HLA-A*26:01 = assay: as above
HLA-A*30:01 = assay: as above
HLA-A*32:01 = assay: as above
HLA-A*23:01 = assay: as above
HLA-A*24:02 = assay: as above
HLA-A*03:01 [1] = assay: IEDB peptide-MHC binding, purified MHC/direct/fluorescence; filed as Kd, often an IC50 or EC50 that approximates it; ≥ and ≤ were set here for values at or beyond the usual limits of such assays
HLA-A*31:01 [2] = assay: as above
HLA-A*33:01 = assay: IEDB peptide-MHC binding, purified MHC/competitive/radioactivity; filed as Kd, often an IC50 or EC50 that approximates it; ≥ and ≤ were set here for values at or beyond the usual limits of such assays
HLA-A*68:01 = assay: as above
HLA-A*02:01 [3] = assay: IEDB peptide-MHC binding, purified MHC/competitive/fluorescence; filed as Kd, often an IC50 or EC50 that approximates it; ≥ and ≤ were set here for values at or beyond the usual limits of such assays; conditions: source organism: Vaccinia virus WR 65-16
HLA-A*03:01 [4] = assay: IEDB peptide-MHC binding, purified MHC/competitive/radioactivity; filed as Kd, often an IC50 or EC50 that approximates it; ≥ and ≤ were set here for values at or beyond the usual limits of such assays
HLA-A*31:01 [5] = assay: as above
HLA-B*15:01 = assay: IEDB peptide-MHC binding, purified MHC/direct/fluorescence; filed as Kd, often an IC50 or EC50 that approximates it; ≥ and ≤ were set here for values at or beyond the usual limits of such assays; conditions: source organism: Haemophilus influenzae
HLA-A*02:01 [6] = assay: as above; conditions: source organism: Haemophilus influenzae
[7] = source organism: SARS coronavirus Tor2
[8] = source organism: Mammarenavirus juninense
[9] = source organism: Mammarenavirus machupoense
[10] = source organism: Mammarenavirus guanaritoense
[11] = source organism: Mammarenavirus brazilense
[12] = source organism: Giardia lamblia ATCC 50803
[13] = source organism: Mammarenavirus tacaribeense
[14] = source organism: Lymphocytic choriomeningitis virus (strain Armstrong)
[15] = source organism: Haemophilus influenzae

Sequence: HEFVDEFYAY
Kd (HLA-B*45:01; [7]): 7210 nM
Kd (HLA-B*44:03; [7]): 85.9 nM
Kd (HLA-B*44:02; [7]): 3500 nM
Kd (HLA-B*40:01; [7]): 835 nM
Kd (HLA-B*18:01; [7]): 44.2 nM
Kd (HLA-B*40:02; [7]): 331 nM

Sequence: AEIVDTVSA
Kd (HLA-B*45:01; [7]): 8.59 nM
Kd (HLA-B*44:03; [7]): 1640 nM
Kd (HLA-B*44:02; [7]): 1930 nM
Kd (HLA-B*40:01; [7]): 396 nM
Kd (HLA-B*18:01; [7]): 8190 nM
Kd (HLA-B*40:02; [7]): 73.5 nM

Sequence: SVIGTFVAEF
Kd (HLA-A*01:01; [8]): 3580 nM
Kd (HLA-A*29:02; [8]): 169 nM
Kd (HLA-A*30:02; [8]): 110 nM
Kd (HLA-A*26:01; [8]): 3.37 nM
Kd (HLA-A*30:01; [8]): 2420 nM
Kd (HLA-A*32:01; [8]): 195 nM

Sequence: GDEALTGFL
Kd (HLA-B*45:01; [9]): ≥ 22600 nM
Kd (HLA-B*44:03; [9]): ≥ 78100 nM
Kd (HLA-B*44:02; [9]): 13800 nM
Kd (HLA-B*40:01; [9]): 908 nM
Kd (HLA-B*18:01; [9]): 5820 nM
Kd (HLA-B*40:02; [9]): 2990 nM

Sequence: KEPQKPLVL
Kd (HLA-B*45:01; [9]): ≥ 70800 nM
Kd (HLA-B*44:03; [9]): ≥ 23800 nM
Kd (HLA-B*44:02; [9]): 18000 nM
Kd (HLA-B*40:01; [9]): 15800 nM
Kd (HLA-B*18:01; [9]): ≥ 77500 nM
Kd (HLA-B*40:02; [9]): 401 nM

Sequence: AENVIVGLV
Kd (HLA-B*45:01; [9]): 3.39 nM
Kd (HLA-B*44:03; [9]): 340 nM
Kd (HLA-B*44:02; [9]): 142 nM
Kd (HLA-B*40:01; [9]): 2930 nM
Kd (HLA-B*18:01; [9]): ≥ 77500 nM
Kd (HLA-B*40:02; [9]): 30 nM

Sequence: AEVEWKFYDA
Kd (HLA-B*45:01; [7]): 5.54 nM
Kd (HLA-B*44:03; [7]): 90.5 nM
Kd (HLA-B*44:02; [7]): 79 nM
Kd (HLA-B*40:01; [7]): 8440 nM
Kd (HLA-B*18:01; [7]): 1540 nM
Kd (HLA-B*40:02; [7]): 4690 nM

Sequence: LEREQIPTLI
Kd (HLA-B*45:01; [10]): 9710 nM
Kd (HLA-B*44:03; [10]): 12800 nM
Kd (HLA-B*44:02; [10]): 19600 nM
Kd (HLA-B*40:01; [10]): 2750 nM
Kd (HLA-B*18:01; [10]): ≥ 57500 nM
Kd (HLA-B*40:02; [10]): 559 nM

Sequence: QEKAPDVGEL
Kd (HLA-B*45:01; [9]): 7030 nM
Kd (HLA-B*44:03; [9]): ≥ 20900 nM
Kd (HLA-B*44:02; [9]): 2340 nM
Kd (HLA-B*40:01; [9]): 13000 nM
Kd (HLA-B*18:01; [9]): ≥ 44600 nM
Kd (HLA-B*40:02; [9]): 1070 nM

Sequence: GERSRCYSLY
Kd (HLA-A*01:01; [11]): ≥ 26700 nM
Kd (HLA-A*23:01; [11]): ≥ 70000 nM
Kd (HLA-A*29:02; [11]): 14400 nM
Kd (HLA-A*30:02; [11]): 718 nM
Kd (HLA-A*24:02; [11]): ≥ 70300 nM
Kd (HLA-A*26:01; [11]): ≥ 69700 nM
Kd (HLA-A*30:01; [11]): 5430 nM
Kd (HLA-A*32:01; [11]): ≥ 69900 nM

Sequence: MNQERRSLR
Kd (HLA-A*03:01 [1]; [12]): ≥ 20000 nM
Kd (HLA-A*31:01 [2]; [12]): 118 nM

Sequence: AVDPAKAYK
Kd (HLA-A*31:01 [2]; source organism: SARS-CoV1): 293 nM
Kd (HLA-A*33:01; [7]): 3420 nM
Kd (HLA-A*68:01; [7]): 553 nM

Sequence: HYDQKLGSY
Kd (HLA-A*01:01; [13]): 11000 nM
Kd (HLA-A*29:02; [13]): ≥ 20300 nM
Kd (HLA-A*30:02; [13]): 89.8 nM
Kd (HLA-A*26:01; [13]): ≥ 36000 nM
Kd (HLA-A*30:01; [13]): 5540 nM
Kd (HLA-A*32:01; [13]): 19400 nM

Sequence: TLRAAMISL
Kd (HLA-A*30:01; source organism: Vaccinia virus WR): 0.714 nM
Kd (HLA-A*02:01 [3]): 2310 nM

Sequence: TTYLGPLSCK
Kd (HLA-A*33:01; [14]): 647 nM
Kd (HLA-A*68:01; [14]): 4.63 nM
Kd (HLA-A*03:01 [4]; [14]): 4.47 nM
Kd (HLA-A*31:01 [5]; [14]): 540 nM
Kd (HLA-A*30:01; [14]): 432 nM

Sequence: SIQKNTIFK
Kd (HLA-A*33:01; [9]): ≥ 22900 nM
Kd (HLA-A*68:01; [9]): 162 nM
Kd (HLA-A*03:01 [4]; [9]): 10.4 nM
Kd (HLA-A*31:01 [5]; [9]): 1890 nM
Kd (HLA-A*30:01; [9]): 62.6 nM

Kd (HLA-B*15:01): 1280 nM
Kd (HLA-A*02:01 [6]): 3130 nM
Kd (HLA-A*03:01 [1]; [15]): 18000 nM
Kd (HLA-A*31:01 [2]; [15]): 2070 nM
Sequence: RMGVKSQLL

Sequence: YEDKVWDKY
Kd (HLA-A*01:01; [14]): 7020 nM
Kd (HLA-A*23:01; [14]): ≥ 77700 nM
Kd (HLA-A*29:02; [14]): ≥ 29900 nM
Kd (HLA-A*30:02; [14]): 2710 nM
Kd (HLA-A*24:02; [14]): ≥ 77500 nM
Kd (HLA-A*26:01; [14]): ≥ 77900 nM
Kd (HLA-A*30:01; [14]): ≥ 32200 nM
Kd (HLA-A*32:01; [14]): ≥ 77800 nM
